How the values were obtained:
[1] = target: T1, TROP2 on DLD1 colon cancer cells (UniProt P09758 27-323, limits assumed); assay: cell-based or functional assay
T1 sequence (looked up): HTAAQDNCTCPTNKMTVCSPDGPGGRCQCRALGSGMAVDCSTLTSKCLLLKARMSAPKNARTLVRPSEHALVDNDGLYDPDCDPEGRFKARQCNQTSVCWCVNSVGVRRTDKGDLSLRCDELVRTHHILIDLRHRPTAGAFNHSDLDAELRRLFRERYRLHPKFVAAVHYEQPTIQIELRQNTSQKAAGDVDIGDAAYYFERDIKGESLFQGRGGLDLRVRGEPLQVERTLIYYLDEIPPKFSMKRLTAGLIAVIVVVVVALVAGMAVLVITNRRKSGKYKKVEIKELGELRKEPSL

[2] = target: CD137 on cells (CD137 reporter cell line, Promega; expanded T cells) (UniProt Q07011 24-255, limits assumed); assay: cell-based or functional assay
CD3 on T cells = target: T2, CD3 on T cells (UniProt P07766 23-207); assay: flow cytofluorimetry on expanded T cells, 250 nM; bar = MFI, marker = percent positive
T2 construct: whole, on cells; CD3 is a complex; also called T cell CD3
Method: (§1) The binding of the multispecific recombinant antigen binding molecules to expanded T cells (FIG. 6D) and to the colon tumor cell line DLD1 (FIG. 6A) was determined by flow cytofluorimetry. Binding was conducted with a saturating concentration (250 nM). The T cells were expanded in culture from immunocult ([…] Technologies) stimulated peripheral blood mononuclear cells that were maintained in culture for at least 30 days. Multispecific recombinant antigen binding molecules were produced in HEK293 cells and one-step purified by FPLC using a HiTrap Protein A column. The expression of various T cell markers or tumor antigens was determined using commercial antibodies specific for Trop2, CD137, MICA/MICB, Tim4, Tim1 (all purchased from Biolegend). […] Greater levels of binding to DLD1 are associated with binding to PS and in particular bivalent binding to PS (e.g., 17v7-18v9).

[3] = target: T1, TROP2 on DLD1 colon cancer cells; assay: flow cytofluorimetry on DLD1 colon tumor cells, 250 nM; bar = MFI, marker = percent positive
Method: as §1

[4] = target: T1, TROP2 on DLD1 colon cancer cells; assay: flow cytofluorimetry on DLD1 colon tumor cells, 250 nM; bar = MFI, marker = percent positive; the molecule also carries a b2GP1 D5 domain for phosphatidylserine
Method: as §1

Chain of CD137 on cells (CD137 reporter cell line, Promega; expanded T cells) (Q07011 24-255 limits assumed): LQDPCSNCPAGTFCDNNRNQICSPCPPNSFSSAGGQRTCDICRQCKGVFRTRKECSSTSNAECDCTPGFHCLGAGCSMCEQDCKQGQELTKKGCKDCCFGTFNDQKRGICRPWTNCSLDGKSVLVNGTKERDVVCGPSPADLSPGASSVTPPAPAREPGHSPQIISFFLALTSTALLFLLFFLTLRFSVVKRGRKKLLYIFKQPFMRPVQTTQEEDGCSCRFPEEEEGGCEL
T2 sequence (P07766 23-207): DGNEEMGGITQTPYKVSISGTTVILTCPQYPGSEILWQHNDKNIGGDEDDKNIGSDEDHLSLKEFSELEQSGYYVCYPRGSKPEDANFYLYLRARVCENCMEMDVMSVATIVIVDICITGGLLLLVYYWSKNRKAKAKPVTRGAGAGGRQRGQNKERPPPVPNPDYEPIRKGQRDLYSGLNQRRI

B1: TetrAx 17v16-18v23 (Trop2 x CD3) (bispecific antibody)
light: DIQLTQSPSSLSASVGDRVSITCKASQDVSIAVAWYQQKPGKAPKLLIYSASYRTTGVPDRFSGSGSGTDFTLTISSLQPEDFAVYYCQQHYITPLTFGAGTKVEIKRTVAAPSVFIFPPSDEQLKSGTASVVCLLNNFYPREAKVQWKVDNALQSGNSQESVTEQDSKDSTYSLSSTLTLSKADYEKQKVYACEVTHQGLSSPVTKSFLRGECGGPAGGGGGTHTCPPCPAPEAAGGPSVFLFPPKPKDTLMISRTPEVTCVVVDVSHEDPEVKFNWYVDGVEVHNAKTKPREEQYNSTYRVVSVLTVLHQDWLNGKEYKCKVSNKALPAPIEKTISKAKGQPREPQVCTLPPSRDELTKNQVSLSCAVKGFYPSDIAVEWESNGQPENNYKTTPPVLDSDGSFFLVSKLTVDKSRWQQGNVFSCSVMHEALHNHYTQKSLSLSPGK
heavy: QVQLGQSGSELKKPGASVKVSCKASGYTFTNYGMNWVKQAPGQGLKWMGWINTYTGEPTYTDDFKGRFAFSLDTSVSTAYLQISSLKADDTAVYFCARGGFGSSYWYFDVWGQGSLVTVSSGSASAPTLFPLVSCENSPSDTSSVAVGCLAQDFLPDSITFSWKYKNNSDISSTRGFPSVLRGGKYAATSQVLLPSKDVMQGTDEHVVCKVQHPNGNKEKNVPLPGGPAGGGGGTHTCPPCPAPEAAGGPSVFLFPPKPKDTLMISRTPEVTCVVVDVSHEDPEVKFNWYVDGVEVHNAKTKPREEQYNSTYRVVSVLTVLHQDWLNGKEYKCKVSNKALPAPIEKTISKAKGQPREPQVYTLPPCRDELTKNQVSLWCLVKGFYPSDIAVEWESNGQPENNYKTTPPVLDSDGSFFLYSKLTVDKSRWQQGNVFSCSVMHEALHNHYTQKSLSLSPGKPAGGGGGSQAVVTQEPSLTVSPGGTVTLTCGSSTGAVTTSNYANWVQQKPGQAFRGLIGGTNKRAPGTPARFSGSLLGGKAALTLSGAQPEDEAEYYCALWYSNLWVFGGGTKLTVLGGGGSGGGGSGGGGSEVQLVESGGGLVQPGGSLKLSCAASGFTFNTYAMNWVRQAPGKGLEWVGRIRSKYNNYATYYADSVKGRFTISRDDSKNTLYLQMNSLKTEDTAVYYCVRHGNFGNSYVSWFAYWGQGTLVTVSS
DLD1 cytotoxicity EC50 (18 h, T cells) [1]: 8 pM

B2: TetrAx 17v9-18 (Trop2 x CD3) (bispecific antibody)
light: QAVVTQEPSLTVSPGGTVTLTCGSSTGAVTTSNYANWVQEKPGQAFRGLIGGTNKRAPGTPARFSGSLLGGKAALTLSGAQPEDEAEYYCALWYSNLWVFGCGTKLTVLRTVAAPSVFIFPPSDEQLKSGTASVVCLLNNFYPREAKVQWKVDNALQSGNSQESVTEQDSKDSTYSLSSTLTLSKADYEKHKVYACEVTHQGLSSPVTKSFNRGECGGPAGGGGGTHTCPPCPAPEAAGGPSVFLFPPKPKDTLMISRTPEVTCVVVDVSHEDPEVKFNWYVDGVEVHNAKTKPREEQYNSTYRVVSVLTVLHQDWLNGKEYKCKVSNKALPAPIEKTISKAKGQPREPQVCTLPPSRDELTKNQVSLSCAVKGFYPSDIAVEWESNGQPENNYKTTPPVLDSDGSFFLVSKLTVDKSRWQQGNVFSCSVMHEALHNHYTQKSLSLSPGKGGGGGGQVQLGQSGSELKKPGASVKVSCKASGYTFTSYAMNWVRQAPGQGLKWMGWINTYTGETPYTDDFKGRFAFSLDTSVSTAYLQISSLKADDTAVYFCARGGFGSSYWYFDVWGQGTLVTVSSGGGGSGGGGSGGGGSDIQLTQSPSSLSASVGDRVSITCKASQDVSIAVAWYQQKPGKAPKLLIYSASYRYTGVPDRFSGSGSGTDFTLTISSLQPEDFAVYYCQQHYITPLTFGAGTKVEIK
heavy: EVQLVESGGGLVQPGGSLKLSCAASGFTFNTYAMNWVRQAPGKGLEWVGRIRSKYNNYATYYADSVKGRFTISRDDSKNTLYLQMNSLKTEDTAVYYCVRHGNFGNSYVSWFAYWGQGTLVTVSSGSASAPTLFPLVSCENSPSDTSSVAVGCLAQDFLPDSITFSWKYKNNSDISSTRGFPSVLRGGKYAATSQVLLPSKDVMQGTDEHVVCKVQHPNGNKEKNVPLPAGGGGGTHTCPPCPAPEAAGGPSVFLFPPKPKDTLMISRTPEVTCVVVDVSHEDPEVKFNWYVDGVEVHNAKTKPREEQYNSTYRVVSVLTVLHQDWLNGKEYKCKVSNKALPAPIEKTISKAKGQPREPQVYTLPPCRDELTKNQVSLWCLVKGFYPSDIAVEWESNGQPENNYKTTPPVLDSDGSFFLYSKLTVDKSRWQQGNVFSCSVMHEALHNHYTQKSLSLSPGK
DLD1 cytotoxicity EC50 (18 h, T cells) [1]: ~3 pM

B3: TetrAx 20v8-18v26 (Trop2 x CD137, two CD137L domains) (bispecific antibody)
light: DIQLTQSPSSLSASVGDRVSITCKASQDVSIAVAWYQQKPGKAPKLLIYSASYRTTGVPDRFSGSGSGTDFTLTISSLQPEDFAVYYCQQHYITPLTFGAGTKVEIKRTVAAPSVFIFPPSDEQLKSGTASVVCLLNNFYPREAKVQWKVDNALQSGNSQESVTEQDSKDSTYSLSSTLTLSKADYEKQKVYACEVTHQGLSSPVTKSFLRGECGGPAGGGGGTHTCPPCPAPEAAGGPSVFLFPPKPKDTLMISRTPEVTCVVVDVSHEDPEVKFNWYVDGVEVHNAKTKPREEQYNSTYRVVSVLTVLHQDWLNGKEYKCKVSNKALPAPIEKTISKAKGQPREPQVCTLPPSRDELTKNQVSLSCAVKGFYPSDIAVEWESNGQPENNYKTTPPVLDSDGSFFLVSKLTVDKSRWQQGNVFSCSVMHEALHNHYTQKSLSLSPGKGGGGGGMFAQLVAQNVLLIDGPLSWYSDPGLAGVSLTGGLSYKEDTKELVVAKAGVYYVFFQLELRRVVAGEGSGSVSLALHLQPLRSAAGAAALALTVDLPPASSEARNSAFGFQGRLLHLSAGQRLGVHLHTEARARHAWQLTQGATVLGLFRVTP
heavy: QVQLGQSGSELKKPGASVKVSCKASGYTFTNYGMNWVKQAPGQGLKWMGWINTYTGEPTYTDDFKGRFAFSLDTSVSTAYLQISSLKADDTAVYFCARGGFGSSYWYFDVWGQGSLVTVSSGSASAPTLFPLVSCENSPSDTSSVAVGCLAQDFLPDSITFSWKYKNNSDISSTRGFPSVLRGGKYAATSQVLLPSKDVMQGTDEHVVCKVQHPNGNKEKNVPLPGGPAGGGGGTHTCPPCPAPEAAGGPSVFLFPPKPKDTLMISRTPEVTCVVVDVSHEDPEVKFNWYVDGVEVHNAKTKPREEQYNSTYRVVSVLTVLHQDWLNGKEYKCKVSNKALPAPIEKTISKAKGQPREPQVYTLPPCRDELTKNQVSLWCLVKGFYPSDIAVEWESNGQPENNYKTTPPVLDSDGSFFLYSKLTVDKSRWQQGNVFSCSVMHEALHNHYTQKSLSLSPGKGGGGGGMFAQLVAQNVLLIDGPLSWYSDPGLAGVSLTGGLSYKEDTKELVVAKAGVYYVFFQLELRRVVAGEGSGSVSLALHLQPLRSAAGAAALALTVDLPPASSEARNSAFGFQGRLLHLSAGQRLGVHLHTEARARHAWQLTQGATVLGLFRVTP
notes: also called dual CD137L TetrAx
CD137 signaling relative to the TetrAx with a single CD137L domain [2]: 3 fold | T cell DLD1 cytotoxicity EC50 [2]: 300 pM | binding result (CD3 on T cells): no binding (tested: 250 nM)

B4: TetrAx 20v8-18v22 (Trop2 x CD137, one CD137L domain) (bispecific antibody)
light: B3 light
heavy: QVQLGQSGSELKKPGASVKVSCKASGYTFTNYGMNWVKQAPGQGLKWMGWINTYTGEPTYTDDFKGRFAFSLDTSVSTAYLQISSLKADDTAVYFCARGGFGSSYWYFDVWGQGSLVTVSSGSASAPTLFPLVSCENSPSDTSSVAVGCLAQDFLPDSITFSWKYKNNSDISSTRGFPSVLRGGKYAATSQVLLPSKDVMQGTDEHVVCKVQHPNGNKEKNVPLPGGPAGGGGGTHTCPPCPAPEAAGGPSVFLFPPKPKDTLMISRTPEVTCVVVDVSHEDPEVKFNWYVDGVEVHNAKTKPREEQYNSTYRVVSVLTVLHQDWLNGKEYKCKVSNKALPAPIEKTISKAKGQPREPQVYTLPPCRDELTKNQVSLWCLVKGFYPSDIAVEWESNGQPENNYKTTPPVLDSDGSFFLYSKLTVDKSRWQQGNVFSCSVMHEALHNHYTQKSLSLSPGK
notes: CD137L domain is residues 90 to 242 (THD)
T cell DLD1 cytotoxicity [2]: 40 fold | binding result (CD3 on T cells): no binding (tested: 250 nM) | binding result [3]: binds

B5: TetrAx 17v17-18v23 (PS x Trop2 x CD3) (bispecific antibody)
light: DIQLTQSPSSLSASVGDRVSITCKASQDVSIAVAWYQQKPGKAPKLLIYSASYRTTGVPDRFSGSGSGTDFTLTISSLQPEDFAVYYCQQHYITPLTFGAGTKVEIKRTVAAPSVFIFPPSDEQLKSGTASVVCLLNNFYPREAKVQWKVDNALQSGNSQESVTEQDSKDSTYSLSSTLTLSKADYEKQKVYACEVTHQGLSSPVTKSFLRGECGGPAGGGGGTHTCPPCPAPEAAGGPSVFLFPPKPKDTLMISRTPEVTCVVVDVSHEDPEVKFNWYVDGVEVHNAKTKPREEQYNSTYRVVSVLTVLHQDWLNGKEYKCKVSNKALPAPIEKTISKAKGQPREPQVCTLPPSRDELTKNQVSLSCAVKGFYPSDIAVEWESNGQPENNYKTTPPVLDSDGSFFLVSKLTVDKSRWQQGNVFSCSVMHEALHNHYTQKSLSLSPGKGGGGGGASCKVPVKKATVVYQGERVKIQEKFKNGMLHGDKVSFFCKNKEKKCSYTEDAQCIDGTIEVPKCFKEHSSLAFWKTDASDVKPC
heavy: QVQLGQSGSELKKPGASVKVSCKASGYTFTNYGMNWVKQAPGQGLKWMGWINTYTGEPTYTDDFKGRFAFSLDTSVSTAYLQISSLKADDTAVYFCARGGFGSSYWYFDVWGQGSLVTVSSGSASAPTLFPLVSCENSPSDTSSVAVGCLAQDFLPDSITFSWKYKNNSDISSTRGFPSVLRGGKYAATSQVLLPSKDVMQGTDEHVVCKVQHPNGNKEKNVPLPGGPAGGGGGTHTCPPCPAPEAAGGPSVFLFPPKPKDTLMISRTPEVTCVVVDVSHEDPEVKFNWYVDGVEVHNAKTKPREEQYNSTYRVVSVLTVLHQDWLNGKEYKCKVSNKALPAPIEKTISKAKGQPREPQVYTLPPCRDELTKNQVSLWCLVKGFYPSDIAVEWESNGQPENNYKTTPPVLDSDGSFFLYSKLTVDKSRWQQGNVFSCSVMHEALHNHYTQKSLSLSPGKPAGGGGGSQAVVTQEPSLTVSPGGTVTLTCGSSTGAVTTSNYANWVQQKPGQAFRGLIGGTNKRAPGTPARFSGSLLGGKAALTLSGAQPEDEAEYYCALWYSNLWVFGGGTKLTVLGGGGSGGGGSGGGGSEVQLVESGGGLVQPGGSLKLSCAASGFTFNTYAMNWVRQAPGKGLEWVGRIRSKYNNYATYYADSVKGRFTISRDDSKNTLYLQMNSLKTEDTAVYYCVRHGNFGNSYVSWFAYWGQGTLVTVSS
DLD1 cytotoxicity EC50 (18 h, T cells) [1]: 0.5 pM | DLD1 cytotoxicity EC50 in a 3D tumor model (spheroids, T cells 2:1) [1]: 21 pM

B6: 17v17-18v22 (bispecific antibody)
light chain 17v17: B5 light
heavy chain 18v22: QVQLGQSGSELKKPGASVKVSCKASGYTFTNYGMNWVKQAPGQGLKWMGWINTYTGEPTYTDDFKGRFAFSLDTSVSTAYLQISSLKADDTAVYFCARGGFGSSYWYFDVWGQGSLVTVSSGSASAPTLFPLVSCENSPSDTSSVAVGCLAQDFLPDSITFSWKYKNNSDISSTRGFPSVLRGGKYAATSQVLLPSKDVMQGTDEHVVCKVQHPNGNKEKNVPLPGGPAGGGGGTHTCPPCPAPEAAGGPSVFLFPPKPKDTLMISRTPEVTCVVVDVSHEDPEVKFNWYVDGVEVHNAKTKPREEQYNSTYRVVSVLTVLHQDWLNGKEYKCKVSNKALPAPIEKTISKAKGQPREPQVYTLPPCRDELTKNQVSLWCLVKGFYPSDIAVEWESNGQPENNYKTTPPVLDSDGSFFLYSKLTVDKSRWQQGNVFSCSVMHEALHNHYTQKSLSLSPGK
notes: also called TROP2 - PS (control)
binding result [4]: binds

— US20240400705A1 (SYNERGY IMT, published 2024)
